Results taken from patent US20240293570A1 (priority 2021, published 2024).
Like-named read-outs stand apart in the source and are kept apart here. *1 amine or outer side, *2 acyl side, *3 side chain or, on linkers, in order; H or OH if unused. Where a SMILES comes first, the peptide text is derived from it. [ ]: non-standard residue; d: D form. The star is where a group is joined. ξ: configuration not given here. Exatecan = CC[C@@]1(O)C(=O)OCc2c1cc1n(c2=O)Cc2c-1nc1cc(F)c(C)c3c1c2[C@@H](N*)CC3; Dolaproine = CO[C@@H]([C@@H]1CCCN1)[C@@H](C)C(=O)O; X2 = CO[C@@H]([C@H]1CCCN1[*:1])[C@@H](C)C(=O)[*:2]; ξDil = CC[C@H](C)C([C@@H](CC(=O)[*:2])OC)N(C)[*:1]; Hexanoyl(6-maleimido) = O=C1C=CC(=O)N1CCCCCC(=O)*; Propanoyl(3-maleimido) = O=C1C=CC(=O)N1CCC(=O)*; Dil = CC[C@H](C)[C@H](NC)[C@@H](CC(=O)O)OC; PABC = O=C(OCc1ccc(N[*:1])cc1)[*:2]; NHCH2OCH2CO = O=C(COCN[*:1])[*:2]; X3 = C[C@@H](N*)[C@@H](O)c1ccccc1; NMeV = CN[C@H](C(=O)O)C(C)C

Columns and labels:
[1] = format: physicochemical; settings: ADC with Her2 antibody, RP-HPLC-MS
Protocol: (§1) A drug-antibody conjugating ratio (also known as drug-antibody ratio, abbreviated as DAR) of the antibody-drug conjugate was tested using reversed-phase high-performance liquid chromatography-mass chromatography (RP-HPLC-MS). The ADC sample was diluted with 50 mmol/L Tris buffer (pH 8.0) to 1 mg/ml. A fresh dithiothreitol (DTT) stock solution was added to achieve a final DTT concentration of 50 mmol/L. Incubation was performed at 37° C. for 30 minutes. A PLRP-S chromatographic column (1000 Å pores, 2.1×50 mm, 5) μm) was used, and the column temperature was 70° C. The flow rate was 0.25 mL/min. […] of sample was injected; the mobile phase A was an aqueous solution of 0.1% formic acid (V/V) and 0.025% trifluoroacetic acid (V/V), and the mobile phase B was an acetonitrile solution of 0.1% formic acid (V/V) and 0.025% trifluoroacetic acid (V/V); the running time was 0-3 minutes, where 27% of mobile phase B ran for 3 minutes, and the mobile phase B ran from 27% to 49% within 3-25 minutes, from 49% to 95% within 25-26 minutes, at 95% within […], from 95% to 27% within 30-31.5 minutes, and at 27% for 31.5-45 minutes. […] Mass spectrometry drying gas was at a temperature of 350° C. and a flow rate of 7.0 L/min, the pressure of an atomizer was 40 psi, capillary voltage was positive 3000V and negative 3000V, and the mass range was 500-1600 m/z. The molecular weight of each mass spectrometry peak (ranging from 20000 to 70000) was calculated by deconvolution and compared with light and heavy chain molecular weights of un-conjugated antibodies to calculate a drug load at each peak, so as to determine the load of a corresponding ultraviolet peak. Area percentages of heavy and light chain ultraviolet peaks were calculated through integration, and a weighted average DAR of the antibody-drug conjugate was calculated by combining the area percentages with the drug load distribution of each peak.

[2] = Polymer (high molecular component) content of antibody-drug conjugates by SE-HPLC; format: physicochemical; settings: ADC with Her2 antibody
Protocol: (§2) Polymers (high molecular components) of the antibody-drug conjugates were tested using molecular exclusion high-performance liquid chromatography (SE-HPLC). A Biocore SEC chromatographic column (7.8×300 mm, […]) was used, and the mobile phase was 50 mM phosphate containing 300 mM sodium chloride (pH 6.8), with a flow rate of 0.5 mL/min. Samples of […] and 10 μl were injected. […] The polymer content of an antibody-drug conjugate was calculated using an area normalization method.

[3] = Naked antibody content of antibody-drug conjugates by hydrophobic interaction chromatography (HIC); format: physicochemical; settings: ADC with Her2 antibody
Protocol: The content of naked antibodies in the antibody-drug conjugate was tested using hydrophobic interaction chromatography (HIC). A Biocore HIC-Butyl chromatographic column (4.6×150 mm, 5 μm) was used. The mobile phase A was a 100 mM phosphate aqueous solution containing 2 M ammonium sulfate (pH 7.0), and the mobile phase B was a 100 mM phosphate aqueous solution (pH 7.0): isopropanol=80:20 (V/V). Samples of 50 μg and 10 μl were injected. The mobile phase A at the flow rate of 1 mL/min ran at 100% for 3 minutes. Within 3-25 minutes, the mobile phase B ran from […] to 100%, while the mobile phase B decreased to 0% at 25.1 and ran to 30 minutes. […] The naked antibody content of the antibody-drug conjugate was calculated using an area normalization method based on the retention time of a naked antibody peak located by the antibody of the antibody-drug conjugate.

[4] = Stability (placement) test of ADCs at 40° C. in dark for 14 days, DAR and polymer content; format: physicochemical
Protocol: as §2, §1
Stability testing method: The stability of the obtained ADCs was tested for 14 days. The ADCs were placed at 40° C. in dark. Sampling points were days 0, 7, and 14. The polymer content and DAR value of samples at different sampling points were tested according to the method in Experimental Example 1.

Row | SMILES | DAR [1] | Polymer content (%) [2] [%] | Naked antibody content (%) [3] [%] | DAR ([4]; Day 0, 40° C. in dark) | Polymer content (%) ([4]; Day 0, 40° C. in dark) | DAR ([4]; Day 7, 40° C. in dark) | Polymer content (%) ([4]; Day 7, 40° C. in dark) | DAR ([4]; Day 14, 40° C. in dark) | Polymer content (%) ([4]; Day 14, 40° C. in dark)
1 | CC[C@H](C)[C@@H]([C@@H](CC(=O)N1CCC[C@H]1[C@H](OC)[C@@H](C)C(=O)N[C@H](C)[C@@H](O)c1ccccc1)OC)N(C)C(=O)[C@@H](NC(=O)[C@H](C(C)C)N(C)C(=O)OCc1ccc(NC(=O)CNC(=O)[C@H](Cc2ccccc2)NC(=O)CNC(=O)CNC(=O)CCCCCN2C(=O)C=CC2=O)cc1)C(C)C [Comparative Example 1, reference compound] ({Hexanoyl(6-maleimido)}-GGFG[PABC][NMeV]V[Dil][Dolaproine]-X3) | 1.03 | 38.31 | 23.50 | – | – | – | – | – | –
2 | C=C1C[C@@H]2CC[C@@]34C[C@H]5OC6C(O[C@H]7CC[C@H](CC(=O)C[C@@H]8[C@@H](OC)[C@@H](C[C@H](O)CNC(=O)CNC(=O)[C@H](Cc9ccccc9)NC(=O)CNC(=O)CNC(=O)CCOCCOCCN(CCOCCOCCC(=O)NCC(=O)NCC(=O)N[C@@H](Cc9ccccc9)C(=O)NCC(=O)NCOCC(=O)N[C@H]9CCc%10c(C)c(F)cc%11nc%12c(c9c%10%11)Cn9c-%12cc%10c(c9=O)COC(=O)[C@]%10(O)CC)C(=O)CCCCCN9C(=O)C=CC9=O)O[C@H]8C[C@H]8O[C@@H](CC[C@@H]1O2)C[C@@H](C)C8=C)O[C@@H]7[C@@H]6O3)[C@H]5O4 [Comparative Example 3, reference compound] | 0.81 | 50.73 | 60.77 | – | – | – | – | – | –
3 | CCc1c2c(nc3ccc(O)cc13)-c1cc3c(c(=O)n1C2)COC(=O)[C@@]3(CC)OC(=O)N(C)CCN(C)C(=O)COCNC(=O)CNC(=O)[C@H](Cc1ccccc1)NC(=O)CNC(=O)CNC(=O)CCN1C(=O)C=CC1=O [Comparative Example 6, reference compound] | 2.76 | 13.74 | 9.06 | – | – | – | – | – | –
4 | C=C1C[C@@H]2CC[C@@]34C[C@H]5OC6C(O[C@H]7CC[C@H](CC(=O)C[C@@H]8[C@@H](OC)[C@@H](CC(O)CNC(=O)CNC(=O)[C@H](Cc9ccccc9)NC(=O)CNC(=O)CNC(=O)CCOCCOCCC(CCOCCOCCC(=O)NCC(=O)NCC(=O)N[C@@H](Cc9ccccc9)C(=O)NCC(=O)NCOCC(=O)N[C@H]9CCc%10c(C)c(F)cc%11nc%12c(c9c%10%11)Cn9c-%12cc%10c(c9=O)COC(=O)[C@]%10(O)CC)C9CCC(NC(=O)CCOCCOCCOCCOCCN%10C(=O)C=CC%10=O)CC9)O[C@H]8C[C@H]8O[C@@H](CC[C@@H]1O2)C[C@@H](C)C8=C)O[C@@H]7[C@@H]6O3)[C@H]5O4 (stereo partly shown) [Comparative Example 7, reference compound] | 0.86 | 60.31 | 53.82 | – | – | – | – | – | –
5 | CC[C@H](C)C([C@@H](CC(=O)N1CCC[C@@H]1[C@H](OC)[C@@H](C)C(=O)N[C@H](C)[C@@H](O)c1ccccc1)OC)N(C)C(=O)[C@@H](NC(=O)[C@H](C(C)C)N(C)C(=O)OCc1ccc(NC(=O)CNC(=O)[C@H](Cc2ccccc2)NC(=O)CNC(=O)CNC(=O)CCN2C(=O)C=CC2=O)cc1)C(C)C (stereo partly shown) [Comparative Example 8, reference compound] ({Propanoyl(3-maleimido)}-GGFG[PABC][NMeV]V[ξDil][X2]-X3) | 2.57 | 12.37 | 10.15 | – | – | – | – | – | –
6 | C=C1C[C@@H]2CC[C@@]34C[C@H]5OC6C(O[C@H]7CC[C@H](CC(=O)C[C@@H]8[C@@H](OC)[C@@H](C[C@H](O)CNC(=O)CNC(=O)[C@H](Cc9ccccc9)NC(=O)CNC(=O)CNC(=O)CCOCCOCCN(CCOCCOCCC(=O)NCC(=O)NCC(=O)N[C@@H](Cc9ccccc9)C(=O)NCC(=O)NCOCC(=O)N[C@H]9CCc%10c(C)c(F)cc%11nc%12c(c9c%10%11)Cn9c-%12cc%10c(c9=O)COC(=O)[C@]%10(O)CC)C9CCC(NC(=O)CCCCCN%10C(=O)C=CC%10=O)CC9)O[C@H]8C[C@H]8O[C@@H](CC[C@@H]1O2)C[C@@H](C)C8=C)O[C@@H]7[C@@H]6O3)[C@H]5O4 (stereo partly shown) [Comparative Example 9, reference compound] | 0.91 | 70.65 | 57.78 | – | – | – | – | – | –
7 | C=C1C[C@@H]2CC[C@@]34C[C@H]5OC6C(O[C@H]7CC[C@H](CC(=O)C[C@@H]8[C@@H](OC)[C@@H](C[C@H](O)CNC(=O)CNC(=O)[C@H](Cc9ccccc9)NC(=O)CNC(=O)CNC(=O)CCN9C(=O)C=CC9=O)O[C@H]8C[C@H]8O[C@@H](CC[C@@H]1O2)C[C@@H](C)C8=C)O[C@@H]7[C@@H]6O3)[C@H]5O4 [Comparative Example 12, reference compound] | 2.67 | 13.18 | 7.00 | – | – | – | – | – | –
8 | C=C1C[C@@H]2CC[C@@]34C[C@H]5OC6C(O[C@H]7CC[C@H](CC(=O)C[C@@H]8[C@@H](OC)[C@@H](C[C@H](O)CNC(=O)CNC(=O)[C@H](Cc9ccccc9)NC(=O)CNC(=O)CNC(=O)CCOCCOCCN(CCOCCOCCC(=O)NCC(=O)NCC(=O)N[C@@H](Cc9ccccc9)C(=O)NCC(=O)NCOCC(=O)N[C@H]9CCc%10c(C)c(F)cc%11nc%12c(c9c%10%11)Cn9c-%12cc%10c(c9=O)COC(=O)[C@]%10(O)CC)C9CCC(C(=O)CCOCCOCCN%10C(=O)C=CC%10=O)CC9)O[C@H]8C[C@H]8O[C@@H](CC[C@@H]1O2)C[C@@H](C)C8=C)O[C@@H]7[C@@H]6O3)[C@H]5O4 (stereo partly shown) [Comparative Example 13, reference compound] | 1.01 | 78.50 | 60.37 | – | – | – | – | – | –
9 | CC[C@@]1(O)C(=O)OCc2c1cc1n(c2=O)Cc2c-1nc1cc(F)c(C)c3c1c2[C@@H](NC(=O)COCNC(=O)CNC(=O)[C@H](Cc1ccccc1)NC(=O)CNC(=O)CNC(=O)CCCCCN1C(=O)C=CC1=O)CC3 [Comparative Example 14, reference compound] ({Hexanoyl(6-maleimido)}-GGFG[NHCH2OCH2CO]-Exatecan) | 8.00 | – | – | – | – | – | – | – | –
10 | C=C1C[C@@H]2CC[C@@]34C[C@H]5OC6C(O[C@H]7CC[C@H](CC(=O)C[C@@H]8[C@@H](OC)[C@@H](C[C@H](O)CNC(=O)CNC(=O)[C@H](Cc9ccccc9)NC(=O)CNC(=O)CNC(=O)CCOCCOCCN(CCOCCOCCC(=O)NCC(=O)NCC(=O)N[C@@H](Cc9ccccc9)C(=O)NCC(=O)NCOCC(=O)N[C@H]9CCc%10c(C)c(F)cc%11nc%12c(c9c%10%11)Cn9c-%12cc%10c(c9=O)COC(=O)[C@]%10(O)CC)C(=O)CN9CCOCCOCCOCCOCCN(C(=O)CCCCCC%10C(=O)C=CC%10=O)CCOCCOCCOCCOCC9)O[C@H]8C[C@H]8O[C@@H](CC[C@@H]1O2)C[C@@H](C)C8=C)O[C@@H]7[C@@H]6O3)[C@H]5O4 [Example 14] | 3.82 | 0.59 | 4.97 | 3.82 | 0.59 | 3.83 | 0.63 | 3.84 | 0.72
